Results on one molecule are retold here after US20040214773A1 (UNIVERSITY OF CHICAGO, published 2004).

This assay concerns the target human cathepsin B (human, UniProt P07858 80-333). In words: second-order association rate constant from continuous hydrolysis of (Z-FR)2-R110, pseudo-first order conditions, 20 nM cathepsin B, 200 or 400 nM Spi2A. The protocol:
Kinetics of cathepsin B inhibition by Spi2A. […] Briefly, 20 nM cathepsin B was added to 5 μM substrate, in presence or in absence of 200 or 400 nM (10- or 20-fold excess respectively) of Spi2A in activation buffer. Reactions were performed in 96-well microtitre plates. The final reaction volume was 200 μl. The rate of substrate hydrolysis was continuously monitored for 3 min. The dead time for the measurement (the time between the addition of the enzyme to the substrate (with or without inhibitor) and the first spectrophotometric measurement was ˜30 s.

B1: Spi2A-3xFLAG (murine serine protease inhibitor 2A with a C-terminal 3xFLAG epitope tag) (other)
chain: MAGVSPAVFGCPDVTLGRNTAVREVQENVTSVDSLTLVSSNTDFAFSLYRKLVLKNPDENVVFSPFSICTALALLSLGAKSNTLKEILEGLKFNLTETPEPDIHQGFRYLLDLLSQPGNQVQISTGSALFIEKHLQILAEFKEKARALYQAEAFTADFQQPLKATKLINDYVSNHTQGKIKELISGLKESTLMVLVNYIYFKGKWKNPFDPNDTFKSEFYLDEKRSVIVSMMKTGYLTTPYFRDEELSCTVVELKYTGNASAMFILPDQGRMQQVEASLQPETLRKWKNSLKPRMIHELRLPKFSISTDYSLEHILPELGIREVFSTHADLSAITGTKDLRVSQVVHKAVLDVAEKGTEAAAATGMAGVGCCAVFDFLEIFFNRPFLMIISDTKAHIALFMAKVTNPERSTNFPNGEGASSQRLESKRLCFGDPLCLIGQ
notes: Purified from lysates of RelA-/- MEFs transduced with retrovirus encoding Spi2A-3xFLAG (ion exchange, then anti-FLAG column); The ORF was amplified from T cell cDNA; also called FLAG-tagged Spi2A; not shown: C-terminal 3xFLAG (22 amino acids) from the 3xFLAG-CMV-14 vector
On to B1, for which the kon is > 1e+06 M⁻¹ s⁻¹.
